Laboratory results as given in US20040106557A1 (LICENTIA, published 2004).
Bridge positions count the residues as written; N and C are the ends. Ends that are not written are not given here.

B1: Tc99m-labeled C4 (peptide)
peptide: CVAYCIEHHCWTC
modifications: also: 99mTc chelated between thiol sulfurs of reduced peptide
B2: GST-C-4 (peptide C-4 expressed as glutathione S-transferase fusion protein) (other)
chain: CVAYCIEHHCWTC
B3: chemically synthesized peptide B-2 (B-2-1, B-2 parent) (peptide)
peptide: CVFAHNYDYLVC
modifications: disulfide 1-12
B4: B-2-2 (B-2 N8) (peptide)
peptide: CVFAHNYNYLVC
modifications: disulfide 1-12 (inferred)
B5: chemically synthesized peptide C-4 without GA flanks (C-4-1, C4 parent) (peptide)
peptide: CVAYCIEHHCWTC
modifications: disulfide 1-13, 5-10
B6: C-4-3 (C-4 Q7) (peptide)
peptide: CVAYCIQHHCWTC
modifications: disulfide (positions not given here)
B7: A-1-2 (A-1 N6Y9) (peptide)
peptide: CVFTSNYAYC
modifications: disulfide 1-10 (inferred)
B8: chemically synthesized peptide A-1 (A-1-1, A-1 parent) (peptide)
peptide: CVFTSDYAFC
modifications: disulfide 1-10
B9: C-4-2 (C-4 F4) (peptide)
peptide: CVAFCIEHHCWTC
modifications: disulfide (positions not given here)
B10: C-4-5 (C-4 A4) (peptide)
peptide: CVAACIEHHCWTC
modifications: disulfide (positions not given here)
B11: B-2-5 (B-2 A7) (peptide)
peptide: CVFAHNANYLVC
modifications: disulfide 1-12 (inferred)
B12: C-4-6 (C-4 A11) (peptide)
peptide: CVAYCIEHHCATC
modifications: disulfide (positions not given here); not fully specified
B13: B-2-4 (B-2 10 N8) (peptide)
peptide: CVFAHNYNYC
modifications: disulfide 1-10 (inferred)
B14: B-2-3 (B-2 N8A9) (peptide)
peptide: CVFAHNYNALVC
modifications: disulfide 1-12 (inferred)
B15: C-4-7 (cyclic with peptide bond) (peptide)
peptide: cyclo(HHCWTVAYCIE)
modifications: disulfide 3-9 (inferred)
B16: A-1-3 (A-1 N6N8Y9) (peptide)
peptide: CVFTSNYNYC
modifications: disulfide 1-10 (inferred)
B17: C-4-4 (C-4 10A5Q7) (peptide)
peptide: CVAYAIQHHC
modifications: disulfide 1-10 (inferred)
B18: A-1-4 (A-1 N6) (peptide)
peptide: CVFTSNYAFC
modifications: disulfide 1-10 (inferred)
B19: A-1-5 (A-1 Y39) (peptide)
peptide: CVYTSDYAYC
modifications: disulfide 1-10 (inferred)
B20: A-1-6 (A1 N6Y7Y9) (peptide)
peptide: CVFTSNAAYC
modifications: disulfide 1-10 (inferred)
B21: phage-displayed peptide C-3 (fUSE5 phage clone) (peptide)
chain: CVAYCEEWECYVC
notes: not shown: fUSE5 phage protein III and flanking residues
B22: phage-displayed peptide B-2 (fUSE5 phage clone) (peptide)
chain: CVFAHNYDYLVC
notes: as for B21
B23: phage-displayed peptide A-1 (fUSE5 phage clone) (peptide)
chain: CVFTSDYAFC
notes: as for B21
B24: phage-displayed peptide B-3 (fUSE5 phage clone) (peptide)
chain: CRFDKEYRTLVC
notes: as for B21
B25: phage-displayed peptide B-1 (fUSE5 phage clone) (peptide)
chain: CTFSVDYKYLMC
notes: as for B21
B26: phage-displayed peptide A-2 (fUSE5 phage clone) (peptide)
chain: CVIYDGNHWC
notes: as for B21
B27: phage-displayed peptide C-5 (fUSE5 phage clone) (peptide)
chain: CVSYCDGLQCWMC
notes: as for B21
B28: phage-displayed peptide A-3 (fUSE5 phage clone) (peptide)
chain: CIFEPDYSYC
notes: as for B21
B29: phage-displayed peptide A-4 (fUSE5 phage clone) (peptide)
chain: CVFDDLYSFC
notes: as for B21
B30: phage-displayed peptide C-1 (fUSE5 phage clone) (peptide)
chain: CVSYCLFEFCYVC
notes: as for B21
B31: phage-displayed peptide C-2 (fUSE5 phage clone) (peptide)
chain: CVEYCWEGSCYVC
notes: as for B21
B32: phage-displayed peptide D-2 (fUSE5 phage clone) (peptide)
chain: CLLYCHDACWWVC
notes: as for B21
B33: phage-displayed peptide D-1 (fUSE5 phage clone) (peptide)
chain: CLSTCAQSCRISC
notes: as for B21
B34: phage-displayed peptide C-4 (fUSE5 phage clone) (peptide)
chain: CVAYCIEHHCWTC
notes: as for B21
B35: phage-displayed peptide Z-3 (fUSE5 phage clone) (peptide)
chain: CVQYCIGGDCWFC
modifications: cysteine pairing not given here; also: displayed on fUSE5 phage protein III
notes: isolated with 200 µM ZnCl2; not shown: fUSE5 phage protein III and flanking residues
B36: phage-displayed peptide Z-11 (fUSE5 phage clone) (peptide)
chain: CMFDPMYMWMTC
modifications: cysteine pairing not given here; also: displayed on fUSE5 phage protein III with flanking residues
notes: as for B35
B37: phage-displayed peptide Z-2 (fUSE5 phage clone) (peptide)
chain: CAAYCVAGLCYGC
modifications: cysteine pairing not given here; also: displayed on fUSE5 phage protein III
notes: as for B35
B38: phage-displayed peptide Z-1 (fUSE5 phage clone) (peptide)
chain: CVTYCYGEVCYYC
notes: isolated with 200 µM ZnCl2 in the panning buffer; not shown: fUSE5 phage protein III and flanking residues
B39: phage-displayed peptide Z-10 (fUSE5 phage clone) (peptide)
chain: CVPYLGLWLC
modifications: cysteine pairing not given here; also: displayed on fUSE5 phage protein III with flanking residues
notes: as for B35
B40: phage-displayed peptide Z-7 (fUSE5 phage clone) (peptide)
chain: CVFDALYTFC
modifications: cysteine pairing not given here; also: displayed on fUSE5 phage protein III with flanking residues
notes: as for B35
B41: phage-displayed peptide Z-6 (fUSE5 phage clone) (peptide)
chain: CVWYTGNTWC
modifications: not fully specified; cysteine pairing not given here; also: displayed on fUSE5 phage protein III with flanking residues
notes: as for B35
B42: phage-displayed peptide Z-8 (fUSE5 phage clone) (peptide)
chain: CVIYPGNVWC
modifications: cysteine pairing not given here; also: displayed on fUSE5 phage protein III with flanking residues
notes: as for B35
B43: phage-displayed peptide Z-5 (fUSE5 phage clone) (peptide)
chain: CVAYCISSLCYYC
modifications: cysteine pairing not given here; also: displayed on fUSE5 phage protein III
notes: as for B35
B44: phage-displayed peptide Z-4 (fUSE5 phage clone) (peptide)
chain: CVVYCDSMKCWTC
modifications: cysteine pairing not given here; also: displayed on fUSE5 phage protein III
notes: as for B35

target: T1, Prostate specific antigen (PSA), purified from human seminal fluid (human, UniProt P07288 25-261); test: cell-based or functional assay

Binder	decrease in PSA enzyme activity (S-2586, A405), 30-fold molar excess of peptide [%]
B1	~50

target: T1, Prostate specific antigen (PSA), …; test: cell-based or functional assay; remark: another data set of the same source

Binder	50% stimulation [µM]
B2	0.57

target: T1, Prostate specific antigen (PSA), …; test: cell-based or functional assay; remark: another data set of the same source

Binder	PSA-peptide/PSA ratio [ratio]
B3	3
B4	3.1
B5	2.1
B6	2.1
B7	2.3
B8	2.3
B9	2.3
B10	1
B11	1.1
B12	0.9
B13	1.9
B14	2.6
B15	0.8
B16	1.9
B17	1.1
B18	2.4
B19	1
B20	1

target: T1, Prostate specific antigen (PSA), …; test: phage display, three rounds of selection on PSA captured by MAb 5E4
Procedure: (§1) The screening of phage display peptide libraries was performed essentially as described by Koivunen et al. (21). Briefly, each phage library was separately screened with PSA captured on microtiter wells coated with the monoclonal antibody 5E4, which binds both free and complexed PSA (24). 33 nM PSA in TBS buffer containing 10 g/L BSA (BSA-TBS) was incubated in wells coated with MAb 5E4 for 1 h, then the wells were washed to remove unbound PSA. An aliquot of each phage library ([…] infectious particles) was added to the wells, and incubated for 3 h at 22° C. during the first round of panning and for 1 h during subsequent rounds. The phage solution was removed and the wells were washed with TBS containing 0.5% Tween 20. The panning was also performed in the prescence of 200 μM ZnCl2. The bound phage were eluted with 0.1 M glycine buffer, pH 2.2 and neutralized with 1 M Tris base. The eluted phage were amplified by infection of E. coli K91 kan cells, and purified by precipitation with polyethylene glycol. After three rounds of selection and amplification single stranded DNA from individual phage clones was prepared and the peptide sequences were determined by sequencing the relevant part of the viral DNA. Sequencing was performed with an ABI 310 Genetic analyzer and Dye Terminator Cycle Sequencing Core Kit (PE Applied Biosystems, Foster City, Calif., USA) using the oligonucleotide 5′ […] 3′ as a primer.

Binder	binding result
B21	binds
B22	binds
B23	binds
B24	binds
B25	binds
B26	binds
B27	binds
B28	binds
B29	binds
B30	binds
B31	binds
B32	binds
B33	binds
B34	binds

target: T1, Prostate specific antigen (PSA), …; test: GST-peptide IFMA, PSA captured by MAb 5E4, Eu-labelled anti GST tracer

Binder	Maximal binding (CPS)
B2	790000

target: T1, Prostate specific antigen (PSA), …; test: phage display selection on PSA captured by MAb 5E4, 200 µM ZnCl2 in the panning buffer
Procedure: as §1

Binder	binding result
B35	binds
B36	binds
B37	binds
B38	binds
B39	binds
B40	binds
B41	binds
B42	binds
B43	binds
B44	binds
